Reference: the supplement of paper PMC9170038

Tested on: MS2 coat protein
Experiment: apparent KD of MS2 coat protein; designed switch direction (-1 OFF switch, 1 ON switch): -1; higher = weaker reporter binding
Procedure, shortened: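 Apparent KD, taken as the median over clusters for each design, was obtained by curve-fitting normalised cluster fluorescence. Designed RNA switches had been transcribed on Illumina chips by stalled E. coli RNA polymerase and titrated with SNAP-549-labelled MS2 coat protein, doubling from 0.7 or 1.5 nM to 3 µM.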

[1] = input ligand: microRNA oligo, concentration not stated
[2] = Eterna round: R95, input ligand: FMN 200 uM
[3] = Eterna round: R95, input ligand: microRNA oligo, concentration not stated
[4] = Eterna round: R95, input ligand: none

| Sequence | apparent KD of MS2 coat protein (input ligand: FMN 200 uM) [nM] | apparent KD of MS2 coat protein (input ligand: none) [nM] | apparent KD of MS2 coat protein [1] [nM] | apparent KD of MS2 coat protein [2] [nM] | apparent KD of MS2 coat protein [3] [nM] | apparent KD of MS2 coat protein [4] [nM] |
| --- | --- | --- | --- | --- | --- | --- |
| AACAGCAGCUUUUUGCGCAACAUGAGGAUCACCCAUGUUGCAUGAGCAGCGUCGGGAGGUACCGGUUUCGUUUUGUC [Eternabot (L1) Solution 45] (Eterna round: R97, puzzle: Sensor, turn-off variant 1) | 18.7 | 18.1 |  |  |  |  |
| AACAUGAGGAUCACCCAUGUGAACCUCCUAAAAUACGACCGGUAGGAUAUACGAAAGAGCCGGAAGUAGAAGGACCGGUUAAAA [Esusale] (Eterna round: R96, puzzle: Exclusion NG 3) | 460 | 158 | 96.1 |  |  |  |
| GUGAUAUAGUUAGUGGCCUACAUGAGGAUCACCCAUGUGAGGGAAAUGUUGAGGCGAAAGUUUUUUGCUCGUCUUUA [JR_SV3TOV1_Sub038] (puzzle: Sensor v3, turn-off variant 1) |  |  |  | 18 | 38.6 | 19.1 |
| UAUUAACAAGCAAGAUCCUACAUGAGGAUCACCCAUGUGUUCGUCUUAUAAGGUACUGUGACGAAAGUCACGGUACC [Sensor 3, v1 - 75] (puzzle: Sensor v3, turn-off variant 1) |  |  |  | 76 | 321 | 108 |
| AAACGCUGAGGAUAUGCGCCGAGGCACAUGAGGAUCACCCAUGUGACCUCACUGCCUUGAGCAGAAGGCAGAAAAU [Vezaatinxe] (puzzle: Exclusion 5) |  |  |  | 137 | 56.4 | 53 |
| GAGGAGACAGGAUAUACAUGAGGAUCACCCAUGUGAGGAGGAGGAGAGAGGAGAAGGAGUAGAAGGGUCAGAGA [JR_Exclu3_Sub024] (puzzle: Exclusion 3) |  |  |  | 45.1 | 33.7 | 73.8 |
| GUACUGAAGCUUUGCUUUAGUCGUACAUGAGGAUCACCCAUGUAGGAUAUGGUAGGCUUUGCUUACUAGAAGGACAGAGUGAUC [JL EXNG3 1.26] (Eterna round: R96, puzzle: Exclusion NG 3) | 33.1 | 75.7 | 139 |  |  |  |
| GUUGGGUGAUGAUACAUGAGGAUCACCCAUGUUAAAAGUCAUUAGGAUAUCCCGACGGCCGGUUAGGAGAAGGAGUGACCAGGC [Maonma] (Eterna round: R96, puzzle: Exclusion NG 3) | 636 | 429 | 285 |  |  |  |
| CGAAAGGUAGGAUAUACGAAGAAAAAGGGUAGAAUAAUAACACAUGAGGAUCACCCAUGUAGAAGGACCAAAGG [Mat - Exclusion 2 - Mod of my Tesla design - D12] (puzzle: Exclusion 2) |  |  |  | 13.3 | 19.4 | 33.2 |
| UAAGUUUAGGUAGGAUAUACUUUUAAUUUCUCUUUCCUUACAUGAGGAUCACCCAUGUUUACAUUGUAGAAGGACCACUAUGUU [JR_ExcNG2_Sub053] (Eterna round: R96, puzzle: Exclusion NG 2) | 17.8 | 26.4 | 18.3 |  |  |  |
| UUAAUGUGAGGAUAUCAGGUGUGCUAGCGUACUGGUACAUCUGAGAAGGCACAUGAGGAUCACCCAUGUUCUUC [JL-ex4-3.30 Brourd mod] (puzzle: Exclusion 4) |  |  |  |  | 32.5 |  |
| GUAAACGAAGAGGAUAUAUGAUAUCAAAGCUUCAUAGAAGGCUUCACAUGAGGAUCACCCAUGUGAUCUUCAAA [Mat - Exclusion 6 - JL Mod - D26] (Eterna round: R97, puzzle: Exclusion 6) | 203 | 38.1 |  |  |  |  |
| CAUACUCAAGUCAGGAUAUAGUCUCGGAUACGGAACUAGAAGGGACAUGAGGAUCACCCAUGUAGAGAGUAAAG [EX-4 Malc #27] (puzzle: Brourd's mod of Exclusion 4) |  |  |  | 63.2 | 37.8 | 52.2 |
| GGCGCACAUGAGGAUCACCCAUGUGAGGAUAUUAGGCGAUCGUCGAUAGACGAUAGCCUGAGAAGGCACAUGCC [Mat - Exclusion 1 - Eli Mod - D18] (Eterna round: R97, puzzle: Exclusion 1) | 188 | 29.3 |  |  |  |  |
| UGUUAUAGAGGAUAUGCGUGAAUAUAGAUUCAUGGAAAUUUACAUGAGGAUCACCCAUGUAGAAGGCUGUGUUU [LRO-Excl2-17-mod 090 by JR] (Eterna round: R97, puzzle: Exclusion 2) | 14.6 | 15.6 |  |  |  |  |
| AAUAACAGAGGAUAUACUGUUUUAUGUAUUUAUUAUUUUAAACAUGAGGAUCACCCAUGUAGAAGGCUGAUUAA [JMF 43] (puzzle: Exclusion 2) |  |  |  |  | 27.4 |  |
| GAUCAUGCAGGAUAUACAGUAUCCAUGAAAACAUGGAUCUAACAUGAGGAUCACCCAUGUAGAAGGGCAUGAUC [Omei Ex2 A24] (Eterna round: R97, puzzle: Exclusion 2) | 17.9 | 19 |  |  |  |  |
| GAGAGAAUCUAGGAUAUGUCAAGAGAAGGAGAGAUAGAAGGAGAGACAUGAGGAUCACCCAUGUCUUCGUGUAG [Default title] (Eterna round: R97, puzzle: Exclusion 6) | 19.4 | 17.8 |  |  |  |  |
| UUCCGGCGUGUAGGAUAUGGUUCCGUUUCGGUUCCAGAAGGACAUGAGGAUCACCCAUGUGCCUGUCGUCGGUCGUCACCGGGC [salish99_ExNG1_r04_219] (Eterna round: R96, puzzle: Exclusion NG 1) | 22.3 | 15.3 | 13.3 |  |  |  |
| UAAAAGUCAGGAUAUGCGAGAGAUUGAAGUGUGGCAAGGUAGCAGAAGGGACAUGAGGAUCACCCAUGUGUGGC [JR_Exclu4_Sub096] (puzzle: Exclusion 4) |  |  |  |  | 49 |  |
| GUGAUCUAUCAUGUAAUGAACAUGAGGAUCACCCAUGUAGACAAGUUUUUUGCUCGUCUCAUAAUAAGAUAGAUCAC [Antenna 17 - Jieux - Sensor, turn-off variant 1] (Eterna round: R97, puzzle: Sensor, turn-off variant 1) | 17.5 | 19.3 |  |  |  |  |
| UUUAAUUUUUUUUUUUUACAAGCUUUUUGCUCGUCUUAUACAUGAGGAUCACCCAUGUGAGUGGGAAAUGAAUUAUC [JMF 100] (puzzle: Sensor v3, turn-off variant 2) |  |  |  | 99 | 218 | 111 |
| UAUGGUAAAGUCAGGAUAUACGUACAGAAUUCUAGGUAGAAGGGACAUGAGGAUCACCCAUGUAUGGUAGUGUU [Ex4 #43] (Eterna round: R97, puzzle: Brourd's mod of Exclusion 4) | 262 | 66.9 |  |  |  |  |
| AUACACUAAGUGAGGAUAUCGAUUUCUUUAAGGAUCGAGAAGGCACAUGAGGAUCACCCAUGUUUGACGUGAAU [JR_BMOE4_Sub096] (puzzle: Brourd's mod of Exclusion 4) |  |  |  |  | 30.3 |  |
| CUGAUGUCAGGAUAUCAGAAAAGGUGCAAGGACGCACCAAAUGAGAAGGGACAUGAGGAUCACCCAUGUAAAAC [Maqucema] (puzzle: Exclusion 4) |  |  |  |  | 25.4 |  |
| CUCUUGUUAGGAUAUCAAACCGGCGGCGGAGCCACCGGAAGUGAGAAGGGACAUGAGGAUCACCCAUGUAAGAA [Islaariste] (puzzle: Exclusion 4) |  |  |  | 220 | 60.9 | 67.3 |
